Data taken from the supplement of paper PMC9112550, “Optimization of the antimicrobial peptide Bac7 by deep mutational scanning” (BMC Biology, 2022).

Test system: Escherichia coli TOP10
Assay: shrunken log2 fold change of peptide-encoding DNA abundance (4.5 h post-induction vs induction); higher = less antimicrobial activity (less host growth inhibition)
Conditions: time post-induction: 4.5 h; library: site-saturation at positions 5, 18, 19, 20
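Also: peptides expressed intracellularly from a pBAD plasmid library in pooled LB shake-flask culture, induced with 0.3% L-arabinose, DNA abundance read by NGS, three biological replicates, DESeq2 with apeglm shrinkage.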

Row | Sequence | shrunken log2 fold change
1 | RRIRWRPPRLPRPRPRPFYKPRP | -0.658
2 | RRIRDRPPRLPRPRPRPEPMPRP | 0.035
3 | RRIRQRPPRLPRPRPRPQYQPRP | -1.46
4 | RRIRARPPRLPRPRPRPVEIPRP | 0.0505
5 | RRIRRRPPRLPRPRPRPRWWPRP | 0.318
6 | RRIRRRPPRLPRPRPRPQCPPRP | -0.178
7 | RRIRARPPRLPRPRPRPEMHPRP | 1.1
8 | RRIRIRPPRLPRPRPRPIRSPRP | -0.273
9 | RRIRWRPPRLPRPRPRPVRWPRP | 0.874
10 | RRIRHRPPRLPRPRPRPNYCPRP | -0.0948
11 | RRIRDRPPRLPRPRPRPITNPRP | -0.33
12 | RRIRRRPPRLPRPRPRPCRDPRP | 0.0656
13 | RRIRERPPRLPRPRPRPTLLPRP | -0.137
14 | RRIRARPPRLPRPRPRPDSAPRP | 0.608
15 | RRIRLRPPRLPRPRPRPASRPRP | 0.00832
16 | RRIRGRPPRLPRPRPRPCGMPRP | 0.0775
17 | RRIRCRPPRLPRPRPRPFHNPRP | 2.29
18 | RRIRGRPPRLPRPRPRPHWIPRP | -0.304
19 | RRIRPRPPRLPRPRPRPATFPRP | -0.305
20 | RRIRFRPPRLPRPRPRPCRGPRP | -0.106

Row | Sequence | shrunken log2 fold change
21 | RRIRPRPPRLPRPRPRPIAHPRP | 0.125
22 | RRIRSRPPRLPRPRPRPVVRPRP | 0.367
23 | RRIRNRPPRLPRPRPRPWMEPRP | -0.00208
24 | RRIRRRPPRLPRPRPRPIMRPRP | 0.277
25 | RRIRTRPPRLPRPRPRPTCGPRP | -0.0204
26 | RRIRSRPPRLPRPRPRPTPFPRP | -0.0055
27 | RRIRHRPPRLPRPRPRPIDAPRP | -0.105
28 | RRIRGRPPRLPRPRPRPIQWPRP | 0.325
29 | RRIRPRPPRLPRPRPRPNWKPRP | -0.101
30 | RRIRSRPPRLPRPRPRPYLCPRP | -0.627
31 | RRIRPRPPRLPRPRPRPRLEPRP | 0.197
32 | RRIRNRPPRLPRPRPRPHTWPRP | -0.296
33 | RRIRLRPPRLPRPRPRPDMYPRP | -0.0404
34 | RRIRARPPRLPRPRPRPKMNPRP | 0.0254
35 | RRIRPRPPRLPRPRPRPMEQPRP | 0.0098
36 | RRIRYRPPRLPRPRPRPAQMPRP | 0.0755
37 | RRIRHRPPRLPRPRPRPYVNPRP | -0.0772
38 | RRIRARPPRLPRPRPRPTWDPRP | 0.604
39 | RRIRKRPPRLPRPRPRPPNDPRP | 0.426
40 | RRIRERPPRLPRPRPRPDITPRP | 3.39

Row | Sequence | shrunken log2 fold change
41 | RRIRDRPPRLPRPRPRPPGKPRP | 0.176
42 | RRIRARPPRLPRPRPRPSQNPRP | -0.25
43 | RRIRLRPPRLPRPRPRPNENPRP | -0.189
44 | RRIRFRPPRLPRPRPRPGVYPRP | -0.0669
45 | RRIRRRPPRLPRPRPRPQQQPRP | -0.0864
46 | RRIRIRPPRLPRPRPRPNYTPRP | -0.516
47 | RRIRPRPPRLPRPRPRPIIPPRP | -0.339
48 | RRIRGRPPRLPRPRPRPFGVPRP | 0.446
49 | RRIRERPPRLPRPRPRPRMMPRP | -0.011
50 | RRIRWRPPRLPRPRPRPAASPRP | 0.404
51 | RRIRRRPPRLPRPRPRPQTNPRP | 0.257
52 | RRIRMRPPRLPRPRPRPMGHPRP | -0.032
53 | RRIRWRPPRLPRPRPRPNGCPRP | 0.0739
54 | RRIRIRPPRLPRPRPRPDERPRP | -0.0172
55 | RRIRRRPPRLPRPRPRPCWMPRP | 0.415
56 | RRIRKRPPRLPRPRPRPAIVPRP | 0.0885
57 | RRIRWRPPRLPRPRPRPIMGPRP | 0.0656
58 | RRIRPRPPRLPRPRPRPCFLPRP | -0.382
59 | RRIRCRPPRLPRPRPRPCEDPRP | -0.219
60 | RRIRIRPPRLPRPRPRPGSNPRP | -0.515
